Data set [1] can be described thus: Net charge of peptide at pH 7.5 in physiological solution. Particulars: per peptide, pH 7.5, physiological solution. It is filed as physicochemical.
Data set [2] is described as follows: Fibril dimensions measured from TEM images. It is filed as physicochemical. Particulars: physiological conditions, TEM. On the procedure:
For, electron microscopy, samples were examined using a Phillips CM10 TEM at 80-100 kV accelerating voltage. Gels were diluted to a peptide concentration of 20 μM seconds before application to a glow-discharged, carbon-coated, copper grid followed by coating with uranyl acetate solution (4% w/v in water).
The dimensions of the fibrils formed by these peptides are given in Table 2, and TEM images from which these measurements were obtained are shown in FIGS. 6A-6D. These dimensions are—the length of a peptide fibril (contour length, L), the length of a peptide fibril before it curves (persistence length, l), the length of a full twist of a peptide fibril (twist pitch, h) the width of a fibril at its widest point (ww) and the width of the fibril at its narrowest point as it twists (wn).

Where a SMILES comes first, the peptide text is derived from it. Where no end group is shown, it is not given here. [ ]: non-standard residue; d: D form. Orn = NCCC[C@H](N)C(=O)O

On to “QQO^+FO^+WO^+FQQQ (QQ[Orn]F[Orn]W[Orn]FQQQ; not fully specified (N-terminus, C-terminus); printed as QQO+FO+WO+FQQQ) [Peptide P11-5]”, for which the “Net charge at pH 7.5” value in data set [1] is “+3”.
Take “QQE^-FE^-WE^-FE^±QQ (QQEFEWEFEQQ; self assembling peptide P11-23)”: the “Net charge at pH 7.5” value in data set [1] is -4.
With “CH3CO-Q-Q-O-F-O-W-O-F-O-Q-Q-NH2 (Ac-QQ[Orn]F[Orn]W[Orn]F[Orn]QQ-NH2; SMILES CC(=O)N[C@@H](CCC(N)=O)C(=O)N[C@@H](CCC(N)=O)C(=O)N[C@@H](CCCN)C(=O)N[C@@H](Cc1ccccc1)C(=O)N[C@@H](CCCN)C(=O)N[C@@H](Cc1c[nH]c2ccccc12)C(=O)N[C@@H](CCCN)C(=O)N[C@@H](Cc1ccccc1)C(=O)N[C@@H](CCCN)C(=O)N[C@@H](CCC(N)=O)C(=O)N[C@@H](CCC(N)=O)C(N)=O) [Peptide P11-14]”, the “Net charge at pH 7.5” value in data set [1] is reported as “+4”.
Turning to “QQQFE^-WE^-FE^±QQ (QQQFEWEFEQQ; self assembling peptide P11-22)”, the “Net charge at pH 7.5” value in data set [1] is -3.
The same measure, in the same setting: the result for “CH3CO-E-Q-E-F-E-W-E-F-E-Q-E-HN2 (Ac-EQEFEWEFEQE-NH2) [Peptide P11-13]” reads -6; that for “QQQFQWQFE^-QQ (QQQFQWQFEQQ; self assembling peptide P11-21)”, -1.
On to `CC(=O)N[C@H](C(=O)N[C@H](C(=O)N[C@@H](CCCNC(=N)N)C(=O)N[C@@H](Cc1ccccc1)C(=O)N[C@@H](CCC(=O)O)C(=O)N[C@@H](Cc1c[nH]c2ccccc12)C(=O)N[C@@H](CCC(=O)O)C(=O)N[C@@H](Cc1ccccc1)C(=O)N[C@@H](CCC(=O)O)C(=O)N[C@H](C(=O)N[C@H](C(N)=O)[C@@H](C)O)[C@@H](C)O)[C@@H](C)O)[C@@H](C)O` [Peptide P11-17, CH3CO-T-T-R-F-E-W-E-F-E-T-T-NH2] (Ac-TTRFEWEFETT-NH2), for which, in data set [2], the “L, fibril contour length” value is recorded as 1.3-4.5 μm; the “h, twist pitch” value is given as 150-236 nm; the “l, fibril persistence length” value is listed as 0.3-1.7 μm; the “wn, width of the fibril at its narrowest point” value is 5-10 nm. The “ww, width of the fibril at its widest point” value in data set [2] is reported as 10-16 nm. In addition, the “Net charge at pH 7.5” value in data set [1] was −2.
For “CH3CO-Q-Q-R-F-E-W-E-F-E-Q-Q-NH2 (Ac-QQRFEWEFEQQ-NH2) [Peptide P11-4]”, in data set [2], the “L, fibril contour length” value was 1.2-7 μm; the “h, twist pitch” value was 132-360 nm; the “l, fibril persistence length” value is listed as 0.7-1.4 μm; the “wn, width of the fibril at its narrowest point” value is 5.5-8 nm. Moreover, in data set [2], the “ww, width of the fibril at its widest point” value is reported as 8-14 nm. In addition, the “Net charge at pH 7.5” value in data set [1] is on record as −2.
